We go through one molecule from patent publication US20150010546A1 (Ablynx, published 2015).

Test [1] addresses T1, human HGF (R&D Systems, 294-HG/CF) (human, UniProt P14210 32-728).
T1 construct: The entry begins at QRKRR, without signal peptide; Amine-coupled to the chip in SPR and biotinylated in AlphaScreen; also called rec hHGF (R&D systems)
The test can be described thus: SPR (Biacore T100), HGF amine-coupled to CM5 chip, periplasmic extract at one dilution. On the procedure:
Off-rate constants (Koff) of individual Nanobodies were determined by surface plasmon resonance on a Biacore T100 instrument.
Human HGF (R&D) was amine-coupled to a CM5 sensor chip at a density of 2500 relative units. Remaining reactive groups were inactivated using ethanolamine. Nanobody binding was assessed at a single dilution of periplasmic extract, whereas c-Met was tested with a single concentration of 10 nM. Each sample was injected for 2 min at a flow rate of 45 μl/min to allow for binding to chip-bound antigen. Next, binding buffer without Nanobody was sent over the chip at the same flow rate to allow dissociation of bound Nanobody. After 10 min, remaining bound analyte was removed by injecting regeneration solution (1M NaCl, 50 mM NaOH).

Test [2] deals with T2, human HGF (R&D material and Peprotech material, values averaged over both) (human, UniProt P14210 32-728).
T2 construct: As printed they differ in one letter
The test can be described thus: SPR (Biacore T100), purified Nanobody, biphasic dissociation, kd2 fitted 300-720 s after injection start.

The target of test [3] is T2, human HGF (R&D material and Peprotech …). As to the kind of experiment: SPR (Biacore T100), purified Nanobody, biphasic dissociation, kd1 fitted 125-185 s after injection start; kd1: early phase of the bi-phasic dissociation, fitted 125 to 185 seconds after injection start. In general terms: In SPR one partner is held on a chip, and binding of the other changes the refractive index at the surface.

Test [4] shares this target. The test can be described thus: SPR (Biacore T100), summary table.
In test [5] the target is T1, human HGF (R&D Systems, 294-HG/CF). As to the kind of experiment: AlphaScreen competition, biotinylated HGF and c-Met-Fc, dilution series of purified Nanobody. How it is done: In brief, 5 μl of 1/5 prediluted periplasmic extract of individual Nanobody clones were incubated with 3 nM biotinylated HGF, 2 nM c-Met-Fc, streptavidin coated donor beads and anti-human IgG1 Fc Nanobody covalently coupled AlphaScreen acceptor beads. Monoclonal antibody clone 24612 (R&D systems) known to inhibit the HGF/c-Met-Fc interaction, was used as a positive control. Assays were read in an Envision AlphaScreen™ option fitted multimode reader (Perkin Elmer). Individual clones were scored as putative HGF/c-Met-Fc interaction inhibiting if the presence of the periplasmic extract decreased the fluorescent signal of the acceptor beads. Both inhibitory and non-inhibitory clones were identified. A 10-fold reduction in signal with respect to the negative control (irrelevant periplasmic extract and buffer) was used to select the HGF/c-Met inhibiting Nanobodies. As a positive control, anti-HGF monoclonal antibody (R&D systems, clone 24612) was included. FIG. 2 depicts an example of screen of periplasmic extracts using AlphaScreen.
Serial dilutions of purified Nanobodies were then analyzed for their ability to block the interaction of human HGF with c-Met-Fc using the same AlphaScreen™ assay as described above (1.4). […]
For orientation: In Alpha technology, singlet oxygen from a donor bead excites a nearby acceptor bead.

T2 sequence (P14210 32-728 limits assumed): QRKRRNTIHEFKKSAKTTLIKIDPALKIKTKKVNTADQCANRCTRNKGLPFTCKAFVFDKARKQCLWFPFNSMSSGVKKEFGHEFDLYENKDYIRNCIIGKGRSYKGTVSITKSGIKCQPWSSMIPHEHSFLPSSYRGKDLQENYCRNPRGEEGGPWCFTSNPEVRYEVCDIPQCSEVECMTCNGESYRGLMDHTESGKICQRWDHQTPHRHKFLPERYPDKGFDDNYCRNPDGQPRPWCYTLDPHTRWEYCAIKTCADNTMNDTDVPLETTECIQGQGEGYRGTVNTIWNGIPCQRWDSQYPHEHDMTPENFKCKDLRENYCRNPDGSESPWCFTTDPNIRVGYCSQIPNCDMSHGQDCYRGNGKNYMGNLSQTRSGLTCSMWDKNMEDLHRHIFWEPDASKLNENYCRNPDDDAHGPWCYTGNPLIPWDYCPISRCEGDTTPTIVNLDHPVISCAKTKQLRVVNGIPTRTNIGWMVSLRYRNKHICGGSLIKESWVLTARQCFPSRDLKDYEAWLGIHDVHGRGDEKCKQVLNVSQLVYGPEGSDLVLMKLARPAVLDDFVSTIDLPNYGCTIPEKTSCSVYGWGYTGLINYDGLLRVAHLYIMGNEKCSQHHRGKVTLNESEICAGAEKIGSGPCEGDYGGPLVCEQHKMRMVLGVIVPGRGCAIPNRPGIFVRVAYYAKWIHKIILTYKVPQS
T1 sequence (P14210 32-728 limits assumed): as above

B1: 9H5 (VHH)
VHH: EVQLVESGGGLVQPGGSLRLSCAASGSIFNLNPMGWYRQAPGKQRELVATVTGEGRTNYSDSVKGRFTISRDNAKNTVYLQMNSLKPEDTAVYYCNAAFWAYDDAYWGQGTQVTVSS
notes: anti-HGF Nanobody clone; not shown: c-myc and His6 tags
On to B1, for which the koff in test [1] came to 0.00155 s⁻¹; in test [2], 0.000952 s⁻¹; in test [3], 0.00241 s⁻¹; in test [4], 0.001 s⁻¹. Further, in test [5], the IC50 turned out to be 2.1 nM.

As usually defined, the koff is a measure of how fast the partners let go of each other. Higher therefore signals fast dissociation. A word on the IC50: it is the concentration needed to halve the response being measured.
